Measured values as given in patent US20250186602A1, “HUMANIZED ANTIBODY THAT BONDS TO EVA1 PROTEIN OR FUNCTIONAL FRAGMENT THEREOF, ANTIBODY-DRUG CONJUGATE AND CHIMERIC ANTIGEN RECEPTOR” (CURED INC., priority 2022, published 2025).
“Also recorded” adds a separate entry of the source.

B1: 232aa: mouse antibody-derived Eval-CAR-T with spacer length 232aa (SEQ ID NO: 63) (protein)
chain: EPKSSDKTHTSPPCPAPEFLGGPSVFLFPPKPKDTLMISRTPEVTCVVVDVSQEDPEVQFNWYVDGVEVHNAKTKPREEQFNSTYRVVSVLTVLHQDWLNGKEYKCKVSNKGLPSSIEKTISKAKGQPREPQVYTLPPSQEEMTKNQVSLTCLVKGFYPSDIAVEWESNGQPENNYKTTPPVLDSDGSFFLYSRLTVDKSRWQEGNVFSCSVMHEALHNHYTQKSLSLSLGK
modifications: Hinge region:232aa
B2: H2-L2: humanized B2E5-48 IgG1, VH H2 (SEQ ID NO: 13), VL L2 (SEQ ID NO: 7) (antibody, V domains shown)
VH: QVQLVQSGAEVKKPGASVKVSCKASGYTFTNYWMHWVRQAPGQGLEWMGEINPTNGGTDYNEKFQGRVTMTVDKSTSTAYMELSSLRSEDTAVYYCTIYTTALDYWGQGTLVTVSS
VL: EIVLTQSPATLSLSPGERATLSCRASSSVGYMYWYQQKPGQAPRPLIYVTSNRATGIPARFSGSGSGTDYTLTISSLEPEDFAVYYCQQWSSNPPTFGQGTKLEIK
modifications: Variable Region of Heavy Chain 2 (Humanized B2E5-48); Variable Region of Light Chain 2 (Humanized B2E5-48)

Tests used:
[1] = system: various tumor cell lines (Eval positive and Eval negative); test: Cytokine production of Eval-CAR-T co-cultured with tumor cell lines (intracellular staining, flow cytometry); type: cell-based, human; conditions: co-culture 1:1, 6 hours, Day 17 cells
Procedure: Next, the cytokine production capacity of the Eval-CAR-T using the anti-human Eval mouse antibody sequence was analyzed. Specifically, CAR-T prepared as described above was cultured until day 17, and the cells were co-cultured with various main cell lines in 1:1. After co-culturing for 6 hours, immobilization and intracellular staining (BD cytofix/cytoperm buffer) were conducted to stain the cells with IFN-gamma (IFN-γ).
The experiment was conducted by using the above-described Eval-CAR-Ts at Day 17. Specifically, the Eval-CAR-Ts were co-cultured with tumor cell lines in 1:1, and the cells were immobilized and stained in the same methods as described above after 6 hours, and intracellular IFN-gamma and IL-2 were evaluated with flow cytometry.
(§1) The experiment was conducted by using hEva1-CAR-Ts at Day 17. Specifically, hEva1-CAR-Ts were co-cultured with tumor cell lines in 1:1, and the cells were immobilized and stained in the same manner as described above after 6 hours, and intracellular IFN-gamma and IL-2 were evaluated with flow cytometry. These figures show the percentages at which the cytokine was positive among the CD8 positive cells.
as §1, with “using the above-described” for “using”, “Specifically, the” for “Specifically,”, “after […]” for “after 6”, “which each” for “which the”

Eval-positive HuCCT-1 = test: Amplification of Eval-CAR-T after antigen stimulation (co-culture with irradiated Eval-positive HuCCT-1); type: cell-based, human
Procedure: Eval-positive HuCCT-1, was irradiated with a radioactive ray of 100 Gy, and was co-cultured with the CAR-Ts in 1:1, and the amplification efficiencies of these were analyzed. In FIG. 3J, amplification efficiencies in time series are shown. In FIG. 3K, the amplification factors at Day 4 were plotted.
In the same manner as described above, Eval-positive HuCCT-1, was irradiated with a radioactive ray of 100 Gy, and was co-cultured with the CAR-T-cells in 1:1. Then, 50 U/ml of IL-2 was added once every three days, at Day 1, 4, and 7, followed by culturing. In FIG. 3L, the respective amplification efficiencies in time series are shown. In FIG. 3M, the amplification factors at Day 18 were plotted.
In the same manner as described above, Eval-positive HuCCT-1, was irradiated with a radioactive ray of 100 Gy, and was co-cultured with hEva1 CAR-T-cells in 1:1.
In the same manner as described above, Eval-positive HuCCT-1, was irradiated with a radioactive ray of 100 Gy, and was co-cultured with hEva1-CAR-Ts in 1:1.

hEva1-mouse Fc = test: Surface plasmon resonance kinetics analysis (BiaCore T200, single-cycle); type: binding, human; conditions: SPR, antibody captured 5 nM, analyte hEva1-mouse Fc 1-250 nM, HBS-EP+ pH 7.4
Procedure: The dissociation constants and association constants of the humanized antibodies and the like were analyzed by using surface plasmon resonance (SPR, product name: BiaCore T200 (manufactured by GE healthcare)).
Specifically, first, human IgG capture antibodies were immobilized on a CM5 chip by an amine coupling method. This immobilization was conducted in both reference cells and active cells. Then, the kinetics analysis on the anti-Eval antibody and hEva1 was conducted by a single-cycle method using the following measurement conditions.
• Sample compartment temperature: 10° C. • Running buffer: HBS-EP+buffer, pH 7.4 • Capturing molecule: Human IgG antibody, reference & active cells • Ligand: Various antibodies 5 nM, active cells only • Analyte: hEva1-mouse Fc1, 5, 25, 125, 250 nM, reference & active cells • Regeneration buffer: 3M MgCl2, reference & active cells • 3 cycles of Blanks (Analyte zero concentration)

[2] = system: Human glioma stem cells (hGIC); test: Cytotoxicity assay of B2E5-ADC against glioma (MTT); type: cell-based
Procedure: Human glioma stem cells (hGIC) were inoculated in a 96-well plate in an amount of 1000 cells per well. […] Then, 5 μl of MTT (5 mg/ml, Wako Pure Chemical) was added to each well, followed by culturing for 2 hours in a CO2 incubator at 37° C. After the culture liquid was discarded, 90 μl of DMSO was added, and after the cells were dissolved, the absorbance (570 nm) was measured by using a benchmark (Bio-Rad).
Note that as a positive control (100%), a measured value in a well in the absence of the antibody was used. In addition, as a negative control (0%), a measured value obtained by adding 5 μl of 1% TritonX100 to a well in the absence of the antibody was used.

[3] = 50 U/ml IL-2 at Day 1, 4, 7, co-culture 1:1 with HuCCT-1 irradiated 100 Gy
[4] = absence of IL-2, co-culture 1:1 with HuCCT-1 irradiated 100 Gy

Chain of hEva1-mouse Fc (O60487 27-154 limits assumed): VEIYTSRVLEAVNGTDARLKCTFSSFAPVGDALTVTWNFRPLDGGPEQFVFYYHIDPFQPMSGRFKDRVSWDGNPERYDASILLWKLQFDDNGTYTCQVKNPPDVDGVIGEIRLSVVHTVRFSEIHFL

| Molecule | cytokine production (intracellular IFN-gamma and IL-2) [1] | amplification efficiency after Eval stimulation (Eval-positive HuCCT-1; [3]) | amplification efficiency after Eval stimulation (Eval-positive HuCCT-1; [4]) | ka (hEva1-mouse Fc) [M⁻¹ s⁻¹] | kd (hEva1-mouse Fc) [s⁻¹] | cytotoxic activity against hGIC [2] |
| --- | --- | --- | --- | --- | --- | --- |
| 30aa: mouse antibody-derived Eval-CAR-T with spacer length 30aa (SEQ ID NO: 60) (EPKSSDKTHTSPPCPAPEFLGGPSVFLFPP; Hinge region:30aa) | excellent cytokine productions | cell amplifications tended to be better | higher cell amplifications |  |  |  |
| B1 | most excellent cytokine production capacity | cell amplifications tended to be better | higher cell amplifications; also recorded: most excellent in cell growth and cytokine production |  |  |  |
| B2 |  |  |  | 19720 | 0.009201 | no cytotoxic activity |
